Source: patent publication US20250277030A1, “ANTI-NAPI2B ANTIBODIES AND METHODS OF USE” (Zymeworks BC Inc., priority 2022, published 2025)

Key:
[1] = biological target: human sodium-dependent phosphate transporter 2B (NaPi2b) (human) (UniProt O95436); test: flow cytometry competition on HEK293-6e cells expressing human NaPi2b; row antibody unlabeled at 100 µg/mL (the reference of the calculation); competitor: AF647-labeled v23855 at 1 µg/mL
[2] = biological target: human sodium-dependent phosphate transporter 2B (NaPi2b) (human) (UniProt O95436); test: flow cytometry competition on HEK293-6e cells expressing human NaPi2b; row antibody unlabeled at 100 µg/mL (the reference of the calculation); competitor: AF647-labeled v18992 (MX35) at 1 µg/mL
[3] = biological target: human sodium-dependent phosphate transporter 2B (NaPi2b) (human) (UniProt O95436); test: flow cytometry competition on HEK293-6e cells expressing human NaPi2b; row antibody unlabeled at 100 µg/mL (the reference of the calculation); competitor: AF647-labeled v18993 (lifastuzumab) at 1 µg/mL

Measured: % inhibition vs. irrelevant mAb

human sodium-dependent phosphate transporter 2B (NaPi2b) (human), sequence (O95436 whole entry): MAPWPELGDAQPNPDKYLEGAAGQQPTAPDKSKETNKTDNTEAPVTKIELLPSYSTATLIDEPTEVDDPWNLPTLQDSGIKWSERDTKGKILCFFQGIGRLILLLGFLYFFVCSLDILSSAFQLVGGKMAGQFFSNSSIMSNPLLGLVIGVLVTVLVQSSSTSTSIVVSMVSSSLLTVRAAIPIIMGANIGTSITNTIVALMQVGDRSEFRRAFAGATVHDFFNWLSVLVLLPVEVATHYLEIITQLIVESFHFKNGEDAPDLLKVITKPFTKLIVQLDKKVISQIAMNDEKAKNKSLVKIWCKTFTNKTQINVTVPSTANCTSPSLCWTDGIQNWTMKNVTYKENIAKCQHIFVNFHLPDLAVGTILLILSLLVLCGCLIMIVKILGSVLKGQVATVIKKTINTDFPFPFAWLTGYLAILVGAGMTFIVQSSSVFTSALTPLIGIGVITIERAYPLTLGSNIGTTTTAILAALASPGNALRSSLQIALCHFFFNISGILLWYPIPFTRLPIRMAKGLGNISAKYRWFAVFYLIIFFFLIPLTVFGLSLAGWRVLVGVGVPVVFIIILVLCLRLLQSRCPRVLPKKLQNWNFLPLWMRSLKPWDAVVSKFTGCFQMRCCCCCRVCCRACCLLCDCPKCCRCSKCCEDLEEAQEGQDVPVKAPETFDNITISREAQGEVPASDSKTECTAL

v16955, palivizumab (anti-RSV) negative control (antibody)
0%: all assays above
